Consider one substance from patent publication US20140072613A1, “Compositions and Methods for Treating Cutaneous Scarring” (priority 2012, published 2014).

Some results are limits rather than exact numbers.

Among the targets are MAPKAP-K2(h) (human) (UniProt P49137); PKCβI(h) (human) (UniProt P05771); PKG1α(h) (human) (UniProt Q13976); CDK5/p35(h) (human) (UniProt Q00535); EphB2(h) (human) (UniProt P29323); Abl(h) (human) (UniProt P00519); PTK5(h) (human) (UniProt P42685); PKCε(h) (human) (UniProt Q02156); CHK2(h) (human) (UniProt O96017); AMPKα2(h) (human) (UniProt P54646); MAPK2(h) (human) (UniProt P28482); Rsk2(h) (human) (UniProt P51812).

What all share (assay): cell-based or functional assay
The target of the next assay is T1, TAO2(h) (human) (UniProt Q9UL54).
T1 sequence (looked up): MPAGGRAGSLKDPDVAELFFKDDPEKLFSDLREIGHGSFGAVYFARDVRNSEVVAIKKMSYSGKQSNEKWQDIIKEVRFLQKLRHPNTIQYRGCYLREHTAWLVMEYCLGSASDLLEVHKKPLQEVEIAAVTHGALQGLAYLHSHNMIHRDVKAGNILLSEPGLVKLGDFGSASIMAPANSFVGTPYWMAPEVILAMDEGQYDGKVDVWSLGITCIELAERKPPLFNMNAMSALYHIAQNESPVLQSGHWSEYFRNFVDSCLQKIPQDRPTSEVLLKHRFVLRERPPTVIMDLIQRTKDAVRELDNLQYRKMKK

For the next assay, the target named is T2, Flt3(h) (human) (UniProt P36888).
T2 sequence (looked up): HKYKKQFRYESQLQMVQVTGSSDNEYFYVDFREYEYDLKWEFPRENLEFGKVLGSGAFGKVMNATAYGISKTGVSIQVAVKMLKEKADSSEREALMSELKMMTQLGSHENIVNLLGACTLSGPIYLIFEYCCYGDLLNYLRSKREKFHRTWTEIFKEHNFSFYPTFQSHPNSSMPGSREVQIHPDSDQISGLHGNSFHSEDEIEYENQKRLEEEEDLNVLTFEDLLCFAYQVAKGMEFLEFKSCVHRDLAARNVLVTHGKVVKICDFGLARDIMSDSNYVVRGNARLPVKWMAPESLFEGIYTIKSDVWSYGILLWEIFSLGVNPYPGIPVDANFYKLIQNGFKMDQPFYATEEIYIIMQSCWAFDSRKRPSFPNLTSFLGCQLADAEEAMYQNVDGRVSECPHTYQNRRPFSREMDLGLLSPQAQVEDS

In another assay the target is T3, NEK11(h) (human) (UniProt Q8NG66).
T3 sequence (looked up): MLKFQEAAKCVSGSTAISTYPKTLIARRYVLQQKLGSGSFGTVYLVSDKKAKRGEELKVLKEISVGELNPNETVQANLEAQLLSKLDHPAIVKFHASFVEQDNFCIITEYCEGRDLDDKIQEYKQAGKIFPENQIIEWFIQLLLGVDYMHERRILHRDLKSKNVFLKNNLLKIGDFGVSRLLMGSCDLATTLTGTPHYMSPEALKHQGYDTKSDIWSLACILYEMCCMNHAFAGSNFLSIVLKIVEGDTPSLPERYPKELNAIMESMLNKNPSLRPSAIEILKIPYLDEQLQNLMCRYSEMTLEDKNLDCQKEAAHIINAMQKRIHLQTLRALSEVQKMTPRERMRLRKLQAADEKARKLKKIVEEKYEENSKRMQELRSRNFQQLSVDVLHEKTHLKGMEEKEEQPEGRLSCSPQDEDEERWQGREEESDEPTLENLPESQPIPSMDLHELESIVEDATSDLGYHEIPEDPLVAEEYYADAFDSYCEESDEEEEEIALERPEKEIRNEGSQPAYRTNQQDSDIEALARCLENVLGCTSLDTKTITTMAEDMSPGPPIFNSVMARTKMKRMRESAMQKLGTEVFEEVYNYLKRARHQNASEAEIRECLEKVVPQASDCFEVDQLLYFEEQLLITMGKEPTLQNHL

Another assay concerns the target T4, LKB1(h) (human) (UniProt Q15831).
T4 sequence (looked up): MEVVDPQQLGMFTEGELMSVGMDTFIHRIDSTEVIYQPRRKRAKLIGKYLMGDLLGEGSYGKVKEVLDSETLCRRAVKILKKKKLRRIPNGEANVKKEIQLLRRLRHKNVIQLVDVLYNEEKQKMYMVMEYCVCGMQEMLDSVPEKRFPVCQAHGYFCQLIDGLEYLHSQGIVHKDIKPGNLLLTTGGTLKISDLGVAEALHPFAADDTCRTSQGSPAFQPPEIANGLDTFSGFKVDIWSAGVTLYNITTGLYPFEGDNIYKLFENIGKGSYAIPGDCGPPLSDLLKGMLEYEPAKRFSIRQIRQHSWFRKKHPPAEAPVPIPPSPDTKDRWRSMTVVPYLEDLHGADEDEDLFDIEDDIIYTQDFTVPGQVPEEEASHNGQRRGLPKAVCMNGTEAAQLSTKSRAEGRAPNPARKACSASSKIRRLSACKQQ

MAPKAP-K2(h) (human), sequence (P49137 46-400 limits assumed): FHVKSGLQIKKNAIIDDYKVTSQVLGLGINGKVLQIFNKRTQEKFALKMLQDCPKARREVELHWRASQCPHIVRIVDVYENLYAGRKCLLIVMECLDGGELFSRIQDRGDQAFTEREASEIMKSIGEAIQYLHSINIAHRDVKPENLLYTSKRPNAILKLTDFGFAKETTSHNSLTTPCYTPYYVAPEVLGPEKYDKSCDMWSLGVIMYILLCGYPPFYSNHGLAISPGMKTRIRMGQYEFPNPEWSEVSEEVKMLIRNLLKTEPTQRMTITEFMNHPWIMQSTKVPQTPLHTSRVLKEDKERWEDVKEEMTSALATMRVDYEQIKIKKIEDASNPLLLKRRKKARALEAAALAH
Abl(h) (human), sequence (P00519 27-1130 limits assumed): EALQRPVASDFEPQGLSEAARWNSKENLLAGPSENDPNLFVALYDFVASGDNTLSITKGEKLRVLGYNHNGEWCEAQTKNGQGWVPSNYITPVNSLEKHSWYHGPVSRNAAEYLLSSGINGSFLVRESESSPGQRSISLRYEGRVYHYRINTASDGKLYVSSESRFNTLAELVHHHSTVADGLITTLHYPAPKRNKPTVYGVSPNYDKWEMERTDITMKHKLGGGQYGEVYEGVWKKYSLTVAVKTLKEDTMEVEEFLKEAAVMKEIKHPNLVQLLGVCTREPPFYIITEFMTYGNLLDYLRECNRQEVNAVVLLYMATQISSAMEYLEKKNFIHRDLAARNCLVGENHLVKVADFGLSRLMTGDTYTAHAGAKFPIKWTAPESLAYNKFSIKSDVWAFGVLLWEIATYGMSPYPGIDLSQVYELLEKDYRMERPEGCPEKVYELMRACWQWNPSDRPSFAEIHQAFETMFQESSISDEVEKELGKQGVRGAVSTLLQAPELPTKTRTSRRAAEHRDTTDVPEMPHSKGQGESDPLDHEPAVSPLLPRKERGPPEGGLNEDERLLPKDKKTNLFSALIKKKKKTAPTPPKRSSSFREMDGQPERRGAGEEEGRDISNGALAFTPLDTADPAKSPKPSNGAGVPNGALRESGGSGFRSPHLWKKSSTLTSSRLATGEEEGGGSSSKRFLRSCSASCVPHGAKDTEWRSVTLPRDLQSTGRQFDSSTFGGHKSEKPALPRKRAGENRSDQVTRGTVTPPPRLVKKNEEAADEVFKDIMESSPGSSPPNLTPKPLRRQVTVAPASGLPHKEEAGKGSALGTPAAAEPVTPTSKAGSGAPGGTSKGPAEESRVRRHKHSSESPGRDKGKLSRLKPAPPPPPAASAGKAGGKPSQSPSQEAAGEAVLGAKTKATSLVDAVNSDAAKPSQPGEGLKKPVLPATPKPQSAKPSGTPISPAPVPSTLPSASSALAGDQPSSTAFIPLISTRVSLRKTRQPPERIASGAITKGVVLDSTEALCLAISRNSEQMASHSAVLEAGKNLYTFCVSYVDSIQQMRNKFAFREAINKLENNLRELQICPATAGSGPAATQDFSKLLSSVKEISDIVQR
AMPKα2(h) (human), sequence (P54646 whole entry): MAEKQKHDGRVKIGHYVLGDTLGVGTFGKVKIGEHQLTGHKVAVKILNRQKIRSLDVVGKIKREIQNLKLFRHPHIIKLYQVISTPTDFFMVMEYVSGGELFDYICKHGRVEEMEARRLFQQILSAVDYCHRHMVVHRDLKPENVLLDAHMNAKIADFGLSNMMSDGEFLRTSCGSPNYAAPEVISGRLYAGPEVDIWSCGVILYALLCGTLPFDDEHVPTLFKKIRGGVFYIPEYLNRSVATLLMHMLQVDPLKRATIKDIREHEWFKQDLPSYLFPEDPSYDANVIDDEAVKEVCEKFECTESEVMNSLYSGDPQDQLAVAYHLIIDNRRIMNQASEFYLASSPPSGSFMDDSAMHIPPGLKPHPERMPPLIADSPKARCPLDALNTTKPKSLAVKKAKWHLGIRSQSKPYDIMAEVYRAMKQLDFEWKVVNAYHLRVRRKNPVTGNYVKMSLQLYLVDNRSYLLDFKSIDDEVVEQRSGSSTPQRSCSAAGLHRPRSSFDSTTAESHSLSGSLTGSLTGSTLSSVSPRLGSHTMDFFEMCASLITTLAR
MAPK2(h) (human), sequence (P28482 whole entry): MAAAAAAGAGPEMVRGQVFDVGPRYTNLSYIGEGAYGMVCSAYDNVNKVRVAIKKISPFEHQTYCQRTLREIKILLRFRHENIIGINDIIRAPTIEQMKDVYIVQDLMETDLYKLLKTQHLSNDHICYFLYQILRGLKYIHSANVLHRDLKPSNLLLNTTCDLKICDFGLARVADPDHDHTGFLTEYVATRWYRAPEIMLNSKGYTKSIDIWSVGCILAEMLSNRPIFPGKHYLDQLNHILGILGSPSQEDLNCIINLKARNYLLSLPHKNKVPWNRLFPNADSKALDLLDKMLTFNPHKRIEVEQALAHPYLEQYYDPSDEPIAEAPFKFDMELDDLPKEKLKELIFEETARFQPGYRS
EphB2(h) (human), sequence (P29323 565-986 limits assumed): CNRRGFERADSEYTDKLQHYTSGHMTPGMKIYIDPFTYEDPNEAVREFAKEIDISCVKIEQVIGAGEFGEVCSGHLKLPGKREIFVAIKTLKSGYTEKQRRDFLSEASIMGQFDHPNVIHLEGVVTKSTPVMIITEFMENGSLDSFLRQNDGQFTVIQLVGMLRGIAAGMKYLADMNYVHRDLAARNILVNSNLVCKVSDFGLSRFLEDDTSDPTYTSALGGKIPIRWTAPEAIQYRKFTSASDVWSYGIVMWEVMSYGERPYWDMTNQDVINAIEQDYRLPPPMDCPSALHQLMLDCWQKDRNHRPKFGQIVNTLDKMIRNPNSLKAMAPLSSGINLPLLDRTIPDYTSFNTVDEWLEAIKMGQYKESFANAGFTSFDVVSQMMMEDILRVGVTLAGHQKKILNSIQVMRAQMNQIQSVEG
PKG1α(h) (human), sequence (Q13976 whole entry): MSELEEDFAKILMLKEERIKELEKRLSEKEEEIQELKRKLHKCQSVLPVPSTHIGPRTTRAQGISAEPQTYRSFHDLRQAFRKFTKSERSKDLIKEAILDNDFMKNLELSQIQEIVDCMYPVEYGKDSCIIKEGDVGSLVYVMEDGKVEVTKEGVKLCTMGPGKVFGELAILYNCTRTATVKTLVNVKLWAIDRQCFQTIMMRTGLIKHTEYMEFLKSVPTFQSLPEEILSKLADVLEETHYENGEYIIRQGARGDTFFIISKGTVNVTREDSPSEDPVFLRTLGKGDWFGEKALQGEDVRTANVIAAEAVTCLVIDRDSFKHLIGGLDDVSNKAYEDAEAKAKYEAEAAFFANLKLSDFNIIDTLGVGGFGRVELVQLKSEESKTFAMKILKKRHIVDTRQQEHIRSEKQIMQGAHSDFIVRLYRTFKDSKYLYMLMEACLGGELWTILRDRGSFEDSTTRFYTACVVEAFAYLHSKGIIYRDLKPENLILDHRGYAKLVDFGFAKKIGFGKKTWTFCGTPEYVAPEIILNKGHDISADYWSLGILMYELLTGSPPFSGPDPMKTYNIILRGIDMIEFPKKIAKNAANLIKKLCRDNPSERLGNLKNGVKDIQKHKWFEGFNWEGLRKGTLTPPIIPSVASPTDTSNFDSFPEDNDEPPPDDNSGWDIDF
PTK5(h) (human), sequence (P42685 whole entry): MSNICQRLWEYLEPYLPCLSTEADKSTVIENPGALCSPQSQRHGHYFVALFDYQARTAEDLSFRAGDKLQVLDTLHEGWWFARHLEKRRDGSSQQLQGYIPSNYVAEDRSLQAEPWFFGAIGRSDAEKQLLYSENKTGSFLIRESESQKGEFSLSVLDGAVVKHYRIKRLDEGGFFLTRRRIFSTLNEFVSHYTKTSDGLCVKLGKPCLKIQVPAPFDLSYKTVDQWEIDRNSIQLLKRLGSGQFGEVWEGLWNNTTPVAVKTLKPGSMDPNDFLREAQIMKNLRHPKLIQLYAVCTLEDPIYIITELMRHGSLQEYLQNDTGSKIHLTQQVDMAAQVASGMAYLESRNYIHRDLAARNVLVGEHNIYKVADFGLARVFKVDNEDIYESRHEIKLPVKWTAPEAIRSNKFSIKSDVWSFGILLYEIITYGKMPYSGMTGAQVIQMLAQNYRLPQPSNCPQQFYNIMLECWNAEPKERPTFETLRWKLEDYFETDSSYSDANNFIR
Rsk2(h) (human), sequence (P51812 whole entry): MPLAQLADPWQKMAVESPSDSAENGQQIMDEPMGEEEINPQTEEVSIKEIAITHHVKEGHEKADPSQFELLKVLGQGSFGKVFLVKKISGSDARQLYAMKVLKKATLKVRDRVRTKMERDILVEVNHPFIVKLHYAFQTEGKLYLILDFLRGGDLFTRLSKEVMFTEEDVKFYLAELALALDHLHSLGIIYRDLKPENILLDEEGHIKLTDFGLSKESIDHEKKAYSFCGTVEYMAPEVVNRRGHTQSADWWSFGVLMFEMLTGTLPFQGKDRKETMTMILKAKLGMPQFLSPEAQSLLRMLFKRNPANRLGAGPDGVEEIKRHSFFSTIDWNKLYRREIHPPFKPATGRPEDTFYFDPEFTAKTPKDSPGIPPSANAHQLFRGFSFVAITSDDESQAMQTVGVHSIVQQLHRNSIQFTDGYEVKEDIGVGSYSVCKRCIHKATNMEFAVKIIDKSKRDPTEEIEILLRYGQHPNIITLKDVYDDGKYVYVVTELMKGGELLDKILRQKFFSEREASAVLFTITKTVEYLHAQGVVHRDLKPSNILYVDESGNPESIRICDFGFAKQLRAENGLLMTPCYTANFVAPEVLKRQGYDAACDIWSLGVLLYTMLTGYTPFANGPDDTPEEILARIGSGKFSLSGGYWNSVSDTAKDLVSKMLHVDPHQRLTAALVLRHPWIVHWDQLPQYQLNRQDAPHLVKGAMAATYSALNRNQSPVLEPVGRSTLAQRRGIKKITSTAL

For the substance MMI-0500 (peptide), the % activity, 100 µM came out at 9% with MAPKAP-K2(h) (human); 15% with TAO2(h) (human); 1% in the assay with PKCβI(h) (human); 17% with Flt3(h) (human); 25% with PKG1α(h) (human); 59% in the assay with CDK5/p35(h) (human). For the same substance, the % activity, 100 µM was determined as 2% in the assay with NEK11(h) (human); 51% in the assay with LKB1(h) (human); 70% in the assay with EphB2(h) (human); 16% with Abl(h) (human); 96% with PTK5(h) (human); 23% with PKCε(h) (human). Besides, the % activity, 100 µM amounted to 13% with CHK2(h) (human), 9% with AMPKα2(h) (human), 60% in the assay with MAPK2(h) (human) and 14% with Rsk2(h) (human). This substance yielded an inhibition of kinase activity at 100 µM in the assay with MAPKAP-K2(h) (human) of over 65%.
